Results from patent publication US20150174237A1 (HENRY M JACKSON FOUNDATION FOR THE ADVANCEMENT OF MILITARY …, published 2015).

Target: T1, mouse B cell CD21 (on mouse B cells) (mouse, UniProt P19070 12-1025)
T1 construct: whole, on cells
T1 sequence: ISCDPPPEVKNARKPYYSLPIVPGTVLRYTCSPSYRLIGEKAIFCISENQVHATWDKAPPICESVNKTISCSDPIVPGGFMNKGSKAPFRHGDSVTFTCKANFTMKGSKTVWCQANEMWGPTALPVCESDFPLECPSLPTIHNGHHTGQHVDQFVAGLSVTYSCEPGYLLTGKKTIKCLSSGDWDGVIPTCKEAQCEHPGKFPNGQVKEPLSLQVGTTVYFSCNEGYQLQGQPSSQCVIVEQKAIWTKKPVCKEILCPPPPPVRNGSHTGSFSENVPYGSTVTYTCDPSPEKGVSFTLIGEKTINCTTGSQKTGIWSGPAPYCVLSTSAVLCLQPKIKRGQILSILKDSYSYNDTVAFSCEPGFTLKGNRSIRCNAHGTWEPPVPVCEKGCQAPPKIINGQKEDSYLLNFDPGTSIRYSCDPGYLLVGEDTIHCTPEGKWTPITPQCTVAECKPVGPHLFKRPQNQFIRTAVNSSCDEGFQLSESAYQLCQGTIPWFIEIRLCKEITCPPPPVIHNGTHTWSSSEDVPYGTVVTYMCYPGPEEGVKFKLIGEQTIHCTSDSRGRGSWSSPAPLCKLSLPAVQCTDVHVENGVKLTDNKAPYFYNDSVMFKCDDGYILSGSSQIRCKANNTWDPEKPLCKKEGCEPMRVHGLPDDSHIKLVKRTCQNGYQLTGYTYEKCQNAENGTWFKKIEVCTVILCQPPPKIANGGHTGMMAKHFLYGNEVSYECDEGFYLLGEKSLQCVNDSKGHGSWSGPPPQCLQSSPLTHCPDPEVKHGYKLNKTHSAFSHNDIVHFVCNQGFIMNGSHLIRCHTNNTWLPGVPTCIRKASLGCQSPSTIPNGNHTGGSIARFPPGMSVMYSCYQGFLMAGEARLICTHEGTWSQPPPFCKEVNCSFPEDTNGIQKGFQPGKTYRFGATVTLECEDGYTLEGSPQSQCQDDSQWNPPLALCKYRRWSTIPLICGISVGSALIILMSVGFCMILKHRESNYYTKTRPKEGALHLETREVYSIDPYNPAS
Experiment: not described (own observation on mouse B cells)

B1: monomeric gp350 (truncated EBV gp350, amino acids 1-470, with His6 tag) (ligand)
chain: MEAALLVCQYTIQSLIHLTGEDPGFFNVEIPEFPFYPTCNVCTADVNVTINFDVGGKKHQLDLDFGQLTPHTKAVYQPRGAFGGSENATNLFLLELLGAGELALTMRSKKLPINVTTGEEQQVSLESVDVYFQDVFGTMWCHHAEMQNPVYLIPETVPYIKWDNCNSTNITAVVRAQGLDVTLPLSLPTSAQDSNFSVKTEMLGNEIDIECIMEDGEISQVLPGDNKFNITCSGYESHVPSGGILTSTSPVATPIPGTGYAYSLRLTPRPVSRFLGNNSILYVFYSGNGPKASGGDYCIQSNIVFSDEIPASQDMPTNTTDITYVGDNATYSVPMVTSEDANSPNVTVTAFWAWPNNTETDFKCKWTLTSGTPSGCENISGAFASNRTFDITVSGLGTAPKTLIITRTATNATTTTHKVIFSKAPESTTTSPTLNTTGFADPNTTTGLPSSTHVPTNLTAPASTGPTVSTHHHHHH
binding result: no binding
